Target: CD44v6 (endogenous human CD44 variant isoforms containing exon v6) (human), P16070
Assay: cell-based or functional assay

KEQWFGNRWHEGYR [human CD44v6 14-mer peptide having SEQ ID NO: 2] gave an entry of InlB-coated latex beads into HeLa cells (block of entry) of 100%.

From US20100305026A1
